Kd data for eleven molecules are collected here from patent publication US20120121587A1 (Chugai, published 2012).

Positions count from the first letter of the chain named.

T1: Human recombinant AXL-FND1 (GST-FND1), from pET-41b(+) (human, UniProt P30530 225-331)
T1 construct: Expressed in E. coli, purified on Glutathione Sepharose; analyte in all Biacore measurements; GST put first by the usual layout of pET-41; not shown: GST-tag of vector pET-41b(+) (Novagen)
T1 sequence (looked up): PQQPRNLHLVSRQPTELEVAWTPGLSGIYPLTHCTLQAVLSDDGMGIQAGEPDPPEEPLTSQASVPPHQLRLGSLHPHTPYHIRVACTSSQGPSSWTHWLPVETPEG

B1: H9/L1 (antibody, human IgG1, kappa)
heavy: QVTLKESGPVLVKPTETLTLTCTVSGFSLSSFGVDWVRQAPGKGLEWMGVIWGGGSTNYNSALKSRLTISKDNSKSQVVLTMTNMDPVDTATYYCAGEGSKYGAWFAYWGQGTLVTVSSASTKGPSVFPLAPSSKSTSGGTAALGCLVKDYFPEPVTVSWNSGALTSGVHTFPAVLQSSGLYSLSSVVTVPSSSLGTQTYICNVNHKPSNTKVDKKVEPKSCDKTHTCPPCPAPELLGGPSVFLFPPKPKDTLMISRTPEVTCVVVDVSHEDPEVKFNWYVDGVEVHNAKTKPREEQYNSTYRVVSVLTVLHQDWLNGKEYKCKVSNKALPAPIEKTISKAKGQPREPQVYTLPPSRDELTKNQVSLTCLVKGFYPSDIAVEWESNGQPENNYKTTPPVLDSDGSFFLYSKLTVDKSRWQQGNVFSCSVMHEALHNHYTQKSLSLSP
light: DVVMTQSPLSLPVTLGQPASISCQSSQNIVHTNGNTYLEWYQQKPGKAPELLIYKVSNRFSGVPDRFSGSGSGTDFTLKISRVEAEDVGVYYCFQGSHIPFTFGQGTKLEIKRTVAAPSVFIFPPSDEQLKSGTASVVCLLNNFYPREAKVQWKVDNALQSGNSQESVTEQDSKDSTYSLSSTLTLSKADYEKHKVYACEVTHQGLSSPVTKSFNRGEC
B2: H9/L5 (antibody, human IgG1, kappa, V domains shown)
VH: QVTLKESGPVLVKPTETLTLTCTVSGFSLSSFGVDWVRQAPGKGLEWMGVIWGGGSTNYNSALKSRLTISKDNSKSQVVLTMTNMDPVDTATYYCAGEGSKYGAWFAYWGQGTLVTVSS
VL: DVVMTQSPLSLPVTLGQPASISCRSSQNIVHTNGNTYLEWYQQKPGQAPELLIYKVSNRFSGVPDRFSGSGSGTDFTLKISRVEAEDVGVYYCFQGSHIPFTFGQGTKLEIKR
B3: H9/L4 (antibody, human IgG1, kappa, V domains shown)
VH: B2 VH
VL: B2 VL with Q47E
B4: H9/L11 (antibody, human IgG1, kappa)
heavy: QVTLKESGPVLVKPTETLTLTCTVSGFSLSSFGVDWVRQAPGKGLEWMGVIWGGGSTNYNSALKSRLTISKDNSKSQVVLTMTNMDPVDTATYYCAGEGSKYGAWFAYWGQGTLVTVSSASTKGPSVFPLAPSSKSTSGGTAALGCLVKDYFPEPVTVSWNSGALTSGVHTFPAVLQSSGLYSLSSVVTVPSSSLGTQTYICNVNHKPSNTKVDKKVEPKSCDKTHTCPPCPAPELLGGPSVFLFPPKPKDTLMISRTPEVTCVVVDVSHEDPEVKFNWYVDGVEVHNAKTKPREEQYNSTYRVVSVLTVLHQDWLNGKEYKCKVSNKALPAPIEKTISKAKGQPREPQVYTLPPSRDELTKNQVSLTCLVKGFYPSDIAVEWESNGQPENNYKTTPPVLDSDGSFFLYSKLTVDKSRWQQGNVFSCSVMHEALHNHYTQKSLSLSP
light: B1 light with L109V, K112E
B5: H9/L12 (antibody, human IgG1, kappa, V domains shown)
VH: B2 VH
VL: B2 VL with R24Q, Q47E, L109V, K112E
B6: H9/L28 (antibody, human IgG1, kappa, V domains shown)
VH: B2 VH
VL: B2 VL with Q47K, E50K
B7: H9/L10 (antibody, human IgG1, kappa)
heavy: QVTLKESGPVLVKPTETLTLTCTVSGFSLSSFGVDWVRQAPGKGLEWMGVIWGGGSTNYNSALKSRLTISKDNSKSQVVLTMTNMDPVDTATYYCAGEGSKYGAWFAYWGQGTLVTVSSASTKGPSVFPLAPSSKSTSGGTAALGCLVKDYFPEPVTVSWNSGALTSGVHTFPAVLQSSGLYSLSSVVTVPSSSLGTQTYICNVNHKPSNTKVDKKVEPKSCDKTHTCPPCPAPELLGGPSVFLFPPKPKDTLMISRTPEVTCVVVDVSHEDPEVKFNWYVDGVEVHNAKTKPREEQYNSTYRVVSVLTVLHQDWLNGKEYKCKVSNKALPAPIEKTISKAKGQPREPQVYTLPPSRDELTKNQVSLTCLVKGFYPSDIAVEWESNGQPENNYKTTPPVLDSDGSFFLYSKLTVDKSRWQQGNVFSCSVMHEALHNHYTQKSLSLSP
light: B1 light with Q24R, L109V, K112E
B8: H9/L27 (antibody, human IgG1, kappa, V domains shown)
VH: B2 VH
VL: B2 VL with Q27R, Q47K
B9: H9/L25 (antibody, human IgG1, kappa)
heavy: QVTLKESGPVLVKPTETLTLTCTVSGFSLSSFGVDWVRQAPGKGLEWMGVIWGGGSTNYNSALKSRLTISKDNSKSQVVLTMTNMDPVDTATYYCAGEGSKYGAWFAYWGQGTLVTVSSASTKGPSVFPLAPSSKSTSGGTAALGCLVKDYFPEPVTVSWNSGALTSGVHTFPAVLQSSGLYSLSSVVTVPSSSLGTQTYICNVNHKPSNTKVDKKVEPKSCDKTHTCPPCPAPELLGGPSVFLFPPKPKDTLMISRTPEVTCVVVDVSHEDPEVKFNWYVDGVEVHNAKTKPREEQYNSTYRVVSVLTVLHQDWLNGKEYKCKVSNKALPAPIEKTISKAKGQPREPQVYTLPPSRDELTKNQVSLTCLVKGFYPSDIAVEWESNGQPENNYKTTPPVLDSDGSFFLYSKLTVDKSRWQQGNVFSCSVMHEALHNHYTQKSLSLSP
light: B1 light with Q17R, Q24R
B10: H9/L13 (antibody, human IgG1, kappa, V domains shown)
VH: B2 VH
VL: B2 VL with R24Q, L109V, K112E
B11: H9/L3 (antibody, human IgG1, kappa, V domains shown)
VH: B2 VH
VL: B2 VL with R24Q, Q27E, Q47K

This assay has as its target T1, Human recombinant AXL-FND1 (GST-FND1), …. Description: SPR (Biacore T100): antibody captured on Protein A, GST-FND1 as analyte. As for the experimental part: Kinetic analyses of antigen-antibody reactions of humanized AXL antibodies were carried out using Biacore T100 (BIACORE). rec-Protein A (Zymed) (hereinafter, Protein A) was immobilized onto a sensor chip, various antibodies were bound to it, then an antigen as the analyte was flushed to measure the antibody-antigen interaction. Human recombinant AXL-FND1 (prepared in 2-2; hereinafter referred to as GST-FND1) prepared at various concentrations was used as the antigen. From the sensorgrams obtained through the measurements, kinetic parameters, namely binding rate constant kₐ (1/Ms) and dissociation rate constant kd (1/s), were calculated, and Kd (M) was calculated based on these values. Biacore T100 Evaluation Software (BIACORE) was used to calculate each of the parameters.
The sensor chips were produced by immobilizing approximately 3000 RU of Protein A onto CM5 (BIACORE) by amine coupling. Using the produced sensor chip, kinetic analyses were carried out on the interaction between the Protein A-bound antibodies and GST-FND1. HBS-EP+ was used as the running buffer, and the flow rate was set to 30 μL/min. Each antibody was prepared at 1 μg/mL using the running buffer, and was subjected to binding with Protein A for two minutes. GST-FND1 as the analyte was prepared at 0.5 and 2.0 μg/mL using HBS-EP+. Measurements were carried out by first binding the various humanized AXL antibodies, chimeric AXL antibodies, or mouse AXL antibodies of interest to Protein A, then applying an analyte solution to them for a two-minute interaction, and then switching to HBS-EP+ (BIACORE) for a two-minute measurement of the dissociation phase. After completion of measurement of the dissociation phase, 30 μL of 10 mM glycine-HCl (pH 2.0) was used for washing to regenerate the sensor chip. Such binding, dissociation, and regeneration were defined as one cycle of analysis. All experiments were performed at 25° C.
Affinity evaluation of each of the variants by Biacore was carried out by the method of Example 2.
In general terms: In SPR one partner is held on a chip, and binding of the other changes the refractive index at the surface.
Take B1: the Kd (usually the concentration at which binding is half-saturated) was 2.49 nM. As to B2, the Kd turned out to be 2.53 nM.

Consider B3, for which the Kd came out at 2.64 nM. The result for B4 reads 2.4 nM. For the molecule B5, the Kd came to 2.55 nM. Regarding B6, the Kd came to 3.06 nM. For B7 the value was 2.92 nM; for B8, 3.07 nM. Take B9: the Kd was 3.54 nM. B10: the Kd was determined as 2.45 nM. For B11 the value was 2.97 nM.
